US20200002383A1

Columns and labels:
[1] = target: CH505 transmitted/founder (TF) gp120 Env (HIV-1); test: SPR
CH505 M11 gp120 (HIV-1) = test: ELISA
[2] = target: CH505 transmitted/founder (TF) gp120 Env (HIV-1); test: ELISA
[3] = target: CH505 w020.14 gp120 (HIV-1); test: ELISA
[4] = target: CH505 TF CHIM.6R.SOSIP.664V4.1 trimer (HIV-1); test: kinetic binding assay of FIG. 69
[5] = target: CH505 transmitted/founder (TF) gp120 Env (HIV-1); test: SPR, antibody captured, gp120 injected
CH505 M5 gp120 (HIV-1) = test: ELISA
[6] = target: CH505 w030.21 gp120 (HIV-1); test: ELISA
[7] = target: CH505 w030.28 gp120 (HIV-1); test: ELISA
[8] = target: CH505 w053.16 gp120 (HIV-1); test: ELISA
[9] = target: CH505 w053.31 gp120 (HIV-1); test: ELISA
[10] = target: CH505 w078.15 gp120 (HIV-1); test: ELISA
[11] = target: CH505 w078.33 gp120 (HIV-1); test: ELISA
[12] = target: CH505 w100.B6 gp120 (HIV-1); test: ELISA
[13] = target: BG505 SOSIP.664 gp140 trimer (HIV-1); test: negative-stain EM
[14] = target: CH505 TF loop D mutant M8 Env on virus (HIV-1)
[15] = target: CH505 TF loop D mutant M20 Env on virus (HIV-1)
[16] = target: CH505 TF loop D mutant M7 Env on virus (HIV-1)
[17] = target: CH505 TF loop D mutant M9 Env on virus (HIV-1)

Substance	log AUC (CH505 M11 gp120 (HIV-1))	log AUC [2]	log AUC [3]	log AUC (CH505 M5 gp120 (HIV-1))	log AUC [7]	log AUC [10]	also measured
CH103 UCA (antibody)	2.6 log AUC	3.5 log AUC	0.3 log AUC	–	–	–	Kd [1]: 200 nM; fold change of the off-rate against CH505 TF gp120 [4]: 10 fold; Kd [5]: 227 nM; kon [5]: 37000 M⁻¹ s⁻¹
CH103 lineage IA1 (antibody)	12.2 log AUC	10.4 log AUC	10.3 log AUC	7 log AUC	10.1 log AUC	10.9 log AUC	log AUC [6]: 11.8 log AUC; log AUC [8]: 8.8 log AUC; log AUC [9]: 13.4 log AUC; log AUC [11]: 8.2 log AUC; log AUC [12]: 12.2 log AUC
CH103 lineage IA2 (antibody)	12.7 log AUC	10.8 log AUC	11 log AUC	7.8 log AUC	11.1 log AUC	11.5 log AUC	log AUC [6]: 11.5 log AUC; log AUC [8]: 9.3 log AUC; log AUC [9]: 13.3 log AUC; log AUC [11]: 9 log AUC; log AUC [12]: 12.1 log AUC
CH103 lineage IA3 (antibody)	11.8 log AUC	11 log AUC	9.5 log AUC	6.8 log AUC	7.7 log AUC	3 log AUC	log AUC [8]: 1.1 log AUC
CH103 lineage IA4 (from UniProt P27701) (antibody)	10.5 log AUC	10.1 log AUC	8.6 log AUC	3.8 log AUC	6.5 log AUC	1.3 log AUC	log AUC [8]: 0.2 log AUC
CH103 lineage IA6 (antibody)	10 log AUC	9.1 log AUC	7.9 log AUC	3.3 log AUC	6.3 log AUC	1 log AUC	–
CH103 lineage IA7 (antibody)	10.1 log AUC	9.2 log AUC	7.2 log AUC	2.3 log AUC	3.5 log AUC	0.7 log AUC	–
CH103 lineage IA8 (antibody)	6.2 log AUC	5.5 log AUC	3.4 log AUC	0.6 log AUC	1.6 log AUC	–	–
CH235 Fab	–	–	–	–	–	–	stoichiometry (Fabs per trimer) (Fab per trimer) [13]: 1
CH235 UCA (antibody)	–	–	–	0.2 log AUC	–	–	–
CH235 lineage I1 (antibody)	2.8 log AUC	–	6.5 log AUC	9.2 log AUC	2.4 log AUC	–	–
CH235 lineage I2 (antibody)	–	–	1.2 log AUC	6.9 log AUC	–	–	–
CH235 lineage I3 (antibody)	–	–	2.7 log AUC	7 log AUC	–	–	–
CH235 lineage IA4 (antibody)	–	–	–	1.4 log AUC	–	–	–
CH235.9 (antibody)	–	–	–	–	–	–	IC50 [14]: 0.66 µg/mL
CH235.9 N30T (antibody)	–	–	–	–	–	–	IC50 [15]: > 44 µg/mL; IC50 [16]: > 44 µg/mL; IC50 [14]: 24.3 µg/mL; IC50 [17]: > 44 µg/mL
